Reference: patent publication US20250188479A1

Substrate: CC(C)=CCC/C(C)=C/COP(=O)(O)OP(=O)(O)O
Experiment: purified protein, by the assay type
Settings: other: purified wildtype RhNUDX1, this study; pH 8.0

B1: Rosa hybrida (Rosa hybrid cultivar) RhNUDX1, GPP phosphohydrolase, wildtype, UniProt JQ820249, SEQ ID NO: 14 (Rosa hybrid cultivar) (protein)
chain: MGNETVVVAETAGSIKVAVVVCLLRGQNVLLGRRRSSLGDSTFSLPSGHLEFGESFEECAARELKEETDLDIGKIELLTVTNNLFLDEAKPSQYVAVFMRAVLADPRQEPQNIEPEFCDGWGWYEWDNLPKPLFWPLDNVVQDGFNPFPT
  Km: 46.4 ± 4.4 µM
  kcat: 0.36 s⁻¹
  kcat/Km: 7747 ± 1736 M⁻¹ s⁻¹
